Measured values as given in the DeepSol protein solubility set.

Assay: soluble on expression in E. coli; label from the status in PepcDB or PDB records

Sequence | soluble on expression in E. coli
MSLHYQPKQDLLQNRIILVTGASDGIGREAALTYARYGATVILLGRNEEKLRRVAQHIADEQHVQPQWFTLDLLTCTAEECRQVADRIAAHYPRLDGVLHNAGLLGEIGPMSEQDPQIWQDVMQVNVNATFMLTQALLPLLLKSDAGSLVFTSSSVGRQGRANWGAYATSKFATEGMMQVLADEYQNRSLRVNCINPGGTRTSMRASAFPTEDPQKLKTPADIMPLYLWLMGDDSRRKTGMTFDAQPGRKEGHHHHHH | soluble
METKQSMDYIIKGPGGTTKPIAPKLITVNPLNIIIESNSGQIDKTLELKNIYPCRIAFRVRTNGPTRYTVCPSKGFLSNGEKVAIQITLIDGTKYQSNHQFIVQAMPSPGDFADRKFIWKQPNFLGIFTNTRVKTMRPAQSLPKSNPKSPAKVSTPTDSGMSSPVASSESLVTPSVPSWSKSPSSPIDHGKFAENINDLSVQVKKAIDEKNTRTSEMVSVVNQIKAVEVDLDRQAQLVNELSERVKRGEIQYSNLVMHERSLRVELGRLKNNEAESIGQ | not soluble
MGSDKIHHHHHHMSDLTVNDGSYQQLLDRIGECLALGQQRSFEQVNSVLVETYWQIGRYIVEFEQAGKERAEYGSKLLQVLSRDLKAAYGKGFSRSNLQYMRLFYLNYENCQTLSGKLSWSHYTELLAISDDLARSFYEQQCIQDRWSVRELKRQKDSALFERVALSKDRAEILALAKDGQRIESARDVVKDPYVFEFLDLPDRNYRESELENRLIAELEKFLLELGKGFAFIGQQYRITLNNTHFFVDLVFYHRILKCFVLIDLKTRAVSHQDIGQMNMYLNYFRAEENMEDDNEPIGIVLARDKDEILVEYAKGGISNQLFVSRYQLYLPDPEVLKQELKRLLSVNDG | not soluble
MGEAPAVLVDHPENGHSNGVCVKSEPENTEITVDVGDRIFLIGGTHERNNFSIGVQIYDKISNNWFSPIVLGTGPKPSKGYSAFVLEQGRILVIKKGSPRNDSIWFLEVDSPYVREQKKLLRKEVVAWSKGVRGNAEKPIVISGPSGVGKGTLISMLMKEFPSMFGFSVSHTTRSPRSMEMDGVHYHFADKKVMEKEIKDGKFLEFASVHGNLYGTSIESVEAVTDSGKRCILDIDVQGARSVRASSLDAIFIFVCPPSMKELEDRLRARGTETEEQIQKRLRNAEAEIKEGISSGIFGLILYNDNLEECYKKLKNLLGLDGLAHVNGVEIEGINLPIEYAVSKMEDKIIIQETGKETRNKIVVDISSLNGGAPGRTRGILVDAIKF | soluble
MSLNSEAKSRIACDIDFDRDGRQAGYARAPLSRNNSGWGTVEIPITVVKNGSGPTVLLTGGVHGDEYEGQIAISDLARRLRPEEVQGRVIMLPAVNMPAIQSDTRLSPVDGRDINRCFPGDPRGTFSQMLAHFLDSVILPMADISVDMHTAGHSYDSTPSTNMHYLADPALRARTLAAAEAFGAPHNVVFGGVDEGSTFTSCVERRGIVSLGTELGGWGRVNIEGVRIGKRGILNVLKHMGVIEGTPETAQRGGAAGTRHMMVREADAYVMAPRTGLFEPTHYVGEEVRTGETAGWIHFVEDVDTAPLELLYRRDGIVWFGAGPGRVTRGDAVAVVMEDYNDTWPQEGHHHHHH | soluble
MLNQNERHQILEEAVEWLMQMKQKPLNEIELLEFEQWKNRSQLHQSIWQQAYQLEEKFQSLPSHIAIPIIQKQKSHPDIWLMVLSCLPLLGLLYVMNQQQQWTADYRNGFHAPQTVKLPDGGKIILNSNTAIDVKYTAKKRDIILRKGEIWIETQHDVKNRPFTVYTQQGQAQALGTKYLVKIDQKSSQIAVLKGAVKVQPKTNNQYVIITKGQKISINQYNLHSVEYFDHSEIGWTKGLIMVNEIPLSEFVQKLRPYQSALIYLDPEVSNIKISGTFPIANMAQLYEMLENTYAIDVDRYAMNHIIRIRQKK | not soluble
MAHHHHHHMSTLRHSHEPSPYVQKGEDLSGQKLTPTIKSYRNMEFLNSYSGRMIRILCEFEEPKQRLQQHFIRTTVLFFGSARSMTQAQYDSTVQDIHSKLAAATDDSTKASLQNKLACLKKTQWMCKWVDVVENLARMVAEFSQKEQDMIIRSFRHIPDYFRLTPEDGSESLDDLQKRFHDLVVTTGGGPGFMEAANHGAESVPGAVTMGMGISLPFENGLNPHVTKGLAFEFHYFFTRKFWMMYSCRAIVIAPGGFGTLDEMFELLTLKQTKKIPSLPVVLLGKEFWQTVVNWQALANYGVISQEEIDSLLFTDSAEEAVEHIKDFYHRLASDSPSTE | not soluble
